Laboratory results as given in patent US20170247454A1 (Hoffmann-La Roche, published 2017).

Experiments:
[1] = biological target: T1, PD1 glycosylated at Asn58 (human PD1-ECD) (human, UniProt Q15116 25-170, N-glycosylated at Asn58 (position on SEQ ID NO: 70)); assay: SPR (Biacore T200, 25 °C), antibody captured by anti-human IgG, PD1-ECD as analyte, 1:1 Langmuir fit
T1 construct: also called glycosylated PD-1; glycosylated recombinant PD1
Source text: (§1) A surface plasmon resonance (SPR) based assay has been used to determine the kinetic parameters of the binding between […]. Therefore, an anti-human IgG was immobilized by amine coupling to the surface of a (Biacore) CM5 sensor chip. The samples were then captured and hu PD1-ECD was bound to them. The sensor chip surface was regenerated after each analysis cycle. The equilibrium constant and kinetic rate constants were finally gained by fitting the data to a 1:1 langmuir interaction model.
(§2) The samples were injected for 20 seconds with a concentration of 10 nM and bound to the second flow cell.
(§3) Finally the double referenced data was fitted to a 1:1 langmuir interaction model with the Biacore T200 Evaluation Software.

[2] = biological target: T2, PD1 aglycosylated at Asn58 (human PD1-ECD) (human, UniProt Q15116 25-170, not glycosylated at Asn58 (position on SEQ ID NO: 70)); assay: as above
T2 construct: also called aglycosylated PD-1; non-glycosylated recombinant human PD1
Source text: as §1, §2, §3

[3] = biological target: T2, PD1 aglycosylated at Asn58 (human …); assay: SPR (Biacore T200, 25 °C), antibody captured by anti-human IgG, PD1-ECD as analyte, 1:1 Langmuir fit; PD1 aglycosylated at Asn58
Source text: as §1, §2, §3

[4] = biological target: T1, PD1 glycosylated at Asn58 (human …); assay: SPR (Biacore T200, 25 °C), antibody captured by anti-human IgG, PD1-ECD as analyte, 1:1 Langmuir fit; PD1 glycosylated at Asn58
Source text: as §1, §2, §3

T2 sequence (Q15116 25-170 limits assumed): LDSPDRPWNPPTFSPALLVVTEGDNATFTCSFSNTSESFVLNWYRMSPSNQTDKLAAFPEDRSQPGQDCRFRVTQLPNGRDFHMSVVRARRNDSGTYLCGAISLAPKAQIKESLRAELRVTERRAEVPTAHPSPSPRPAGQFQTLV
T1 sequence (Q15116 25-170 limits assumed): as above

koff [1]: 7.46e-05 s⁻¹
kon [1]: 777000 M⁻¹ s⁻¹
koff [2]: 0.027 s⁻¹
kon [2]: 336000 M⁻¹ s⁻¹
Kd [3]: 80.2 nM
Kd [4]: 0.0961 nM
B1: PD1-0103-0312 (antibody, V domains shown)
VH: EVQLLESGGGLVQPGGSLRLSCAASGFSFSSYTMSWVRQAPGKGLEWVATISGGGRDIYYPDSVKGRFTISRDNSKNTLYLQMNSLRAEDTAVYYCVLLTGRVYFALDSWGQGTLVTVSS
VL: DIVMTQSPDSLAVSLGERATINCKASESVDTSDNSFIHWYQQKPGQSPKLLIYRSSTLESGVPDRFSGSGSGTDFTLTISSLQAEDVAVYYCQQNYDVPWTFGQGTKVEIK
